Usually Kd stands for the free concentration of one partner at which half of the binding sites on the other are occupied at equilibrium, for simple one-to-one binding. A higher Kd goes with lower affinity.

We go through two molecules from US6284871.

For assay [1], the target named is purified human Factor IXa (human) (UniProt P00740).
The target of assay [2] is non-activated Factor IX (Homo sapiens (Human)) (UniProt P00740).
For assay [3], the target named is purified human Factor IXa (human) (UniProt P00740). The source holds these as a separate data set.
The target of assay [4] is non-activated Factor IX (Homo sapiens (Human)) (UniProt P00740). Description: equilibrium binding in solution (method of Friguet): 30 nM Factor IX with varying peptide, non-bound Factor IX measured on immobilized peptide.
Assay [5] addresses purified human Factor IXa (human) (UniProt P00740). As to the kind of experiment: equilibrium binding in solution (method of Friguet): 30 nM Factor IXa with varying peptide, non-bound Factor IXa measured on immobilized peptide.

On to “complete Factor VIII light chain (residues 1649-2332) (from UniProt P00451)”, for which the Anticoagulant activity in the APTT test (prolongation of the clotting time in seconds) in assay [1] turned out to be 8.6 s.

Turning to KNFVKPNETKTYFWK [compound … (SEQ ID NO: 3), synthetic peptide of Factor VIII A3-domain residues 1804-1818], the half-maximal inhibition in the APTT test in assay [2] and in assay [3] was 0.3 mM in each case. Further, the Kd in assay [4] came out at 230 µM; in assay [5], 200 µM.
